Reference: patent publication US12709641B2, “Tau binding compounds” (VOYAGER THERAPEUTICS, INC., dated 2026)
Where a chain is given by its changes, count along the chain named.

B1: V0055 (antibody, V domains shown)
VH: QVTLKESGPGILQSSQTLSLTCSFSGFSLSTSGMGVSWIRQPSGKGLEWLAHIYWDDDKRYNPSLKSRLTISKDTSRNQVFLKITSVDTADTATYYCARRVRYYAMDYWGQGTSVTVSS
VL: DIVMTQSPSSLSVSAGEKVTMSCKSSQSLLNSGNQKNYLAWYQQKPGQPPKLLIYGASTRESGVPDRFTGSGSGTDFTLTISSVQAEDLAVYYCQNDHSHPYTFGGGTKLEIK
B2: V0007 (antibody, V domains shown)
VH: EVQLVESGGDLVKPGGSLKLSCAASGFTFSSYGLSWVRQTPDKRLEWVATISSGGDYTYYPDSVKGRFTISRDNAKNILYLHMSSLKSEDTAMYYCAREDGYYVGTMDYWGQGTSVTVSS
VL: DIQMTQSPSSLSASLGERVSLTCRASQDIGSSLNWLQQEPDGTFKRLIYATSSLDSGVPKRFSGSRSGSDYSLTISSLESEDFVDYYCLQYDSLPLTFGAGTKLELK
B3: V1003 (antibody, V domains shown)
VH: EVKLVESGGGLVKPGGSLKLSCAASGFTFSSYAMSWVRQIPEKRLEWVAAINSNGGSTYYPDTVKDRFTISRDNAKNTLYLQMSSLRSEDTALYYCVRQGWDAWFAYWGQGTLVAVSA
VL: DIKMTQSPSSMYASLGERVTITCKASQDINSYLSWFQQKPGKSPKTLIYRANRLVDGVPSRFSGSGSGQDYSLTISSLEYEDMGIYYCLQYDEFPLTFGAGTKLELK
B4: V1001 (antibody, V domains shown)
VH: EVQLVESGGGLVKPGGSLKLSCAASGFTFSSYAMSWVRQTPEKRLEWVAAINSNGGRTYYPDTVKDRFTISRDNAKNTLYLQMSSLRSEDTALYYCARQGHSNYYEAWFAYWGQGTLVTVSA
VL: B3 VL with V19L, T20S, S34N, Y80D, K107R
B5: V1004 (antibody, V domains shown)
VH: B3 VH with K3Q, I40T, T58I, S84I, V97A, W101G, D102S, A103S, A106V, A115T
VL: B3 VL with T5I, S77R, M83V, I85L, L89Q
B6: V2001 (antibody, V domains shown)
VH: DVQLVESGGGLVQPGGSRKLSCAASGFIFSSFGMHWVRQAPEKGLEWVAYISSGSATIYYADTVKGRFTISRDNPKNTLFLQMTSLRSEDTAMYYCARKRGSGNYVSAMDFWGQGTSVTVSS
VL: DVLMTQTPLSLPVSLGDQASISCRSGQSIVHSNGNTYLEWYLQKPGQSPKLLIYKVSNRFSGVPDRFSGSGSGTDFTLKISRVEAEDLGVYYCFQGSHVPWTFGGGTKLEIK
B7: V00011 (antibody, V domains shown)
VH: EVQLVESGGGLVKPGGSLKLSCAASGFTFSDYGMYWVRQAPEKGLEWVAYISSGSTTIYYADTVKGRFTISRDNAKNTLFLQMTSLRSEDTAMYYCAGHWYFDVWGTGTTVTVSS
VL: B6 VL with L9V, G26S, Y37H, G96D
B8: V0047 (antibody, V domains shown)
VH: EVQLVESGGGLVKPGGSLKLSCAASGFTFSDYGMHWVRQAPEKGLEWVAYISSGSRTIYYADTVKGRFTISRDNAKNTLFLQMTSLRSEDTAMYYCARSPYAMDYWGQGTSVTVSS
VL: B6 VL with L3V, G26S, I29L, E39H, Y92F, F94S, G96S, S97T
B9: V0049 (antibody, V domains shown)
VH: QVTLKESGPGILQSSQTLSLTCSFSGFSLSTSGMGVSWIRQPSGKGLEWLAHIYWDDDKRYNPSLKSRLKISKDTSRNQVFLKITSVDTADTATYYCARRGYYSNGNYFDYWGQGTTLTVSS
VL: QIVLTQSPTTMAASPGEKITITCSASSSISSTYLHWYQQKPGFSPKLLIYRTSNLASGVPARFSGSGSGTSYSLTIGTMEAEDVATYYCQQGSSIPRYTFGGGTKLEIK
B10: V0008 (antibody, V domains shown)
VH: QVQLKESGPGLVAPSQSLSITCTVSGFSLTTYAISWVRQPPGKGLEWLGVIWTGGGTDFNSALKSRLSISKDNSKSQVFLKMISLQTNDTARYYCARKGGSYYSTTYVGLYAMDYWGQGTSVTVSS
VL: DIQMTQTTSSLSASLGDRVTISCRASQDISNYLNWYQQKPAGTVKLLIYYTSRLHSGVPSRFSGSGSGTDYSLTISNLEQEDVATYFCQQGNTLPWTFGGGSKLEIK
B11: V0003 (antibody, V domains shown)
VH: QVQLQQPGTELVKPGASVKLSCKASGYTFTKNWLHWVKQRPGQGLEWIGYINPSNGATNYNERFKSKASLTVDKSSTTAYMQLSSLTSEDSAVYYCARSGGWLLPYYAMDYWGHGTSVTVSS
VL: EIVLIQSPALMAASPGEKVTITCSVSSSISSSNLHWYQQQSGTSPKPWILATSNLASGVPVRFSGSGSGTSYSLTISSMEAEDAATYYCQQWSSYPFTFGTGTKLEIK
B12: V1005 (antibody, V domains shown)
VH: QVTLKESGPGKLQPSQTLSLTCSFSGFSLSTSGMGVSWIRQPSGKGLEWLAHIYWDDDKRYNPSLKSRLTISKDTSRNQVFLKITSVDTADTATYYCARGWLRRKDYSAMDYWGQGTSVTVSS
VL: NIVMTQSPKSMSMSVGERVTLSCKASEHVGPYVSWYQHKAEQSPKLLIYGASNRYTGVPDRFTGSGSATDFTLIISSVQAEDLADYHCGQTYSYPLTFGAGTKLELK
B13: V0025 (antibody, V domains shown)
VH: QVQLQQPGTELVKPGASVKLSCKASGFTFTRFWMHWVKQRPGQGLEWIGNINPNNGETNYNEKFKIKAALTVDKSSTTAYMQLSSLTSEDSAVYSCARGTGTGAMDYWGQGTSVTVSS
VL: DVVMTQTPLSLPVSLGDQASISCRSSQSLVHSTGNTYLYWYLQKPGQSPKLLIYRVSTRFSGVPDRFSGSGSGTDFTLKINRVEAEDLGVYFCFQGTHVPRTFGGGTKLEIK
B14: V0043 (antibody, V domains shown)
VH: DVQLQESGPGLVKPSQSLSLTCSVSGYSITTNYFWNWIRLFPGNKLEWMGYISYDGSNVYNPSLKNRISITRDTSKNQFFLKLNSLTTEDTATYYCARGPPSAYWGQGTLVTVSA
VL: SIVMTQSPKFLPVSAGDRVTMTCKASQSVGNNVAWYQQKPGQSPKLLIYYASNRYTGVPDRFTGSGSGTDFTLTISSVQVEDLVVYFCQQHYSSPLTFGAGTKLELK
B15: V0045 (antibody, V domains shown)
VH: DVQLQESGPGLVKPSQSLSLTCSVTGYSITTNYYWNWIRQFPGNKLEWMGYISYDGSSNYNPSLKNRISITRDTSKNQFFLNLNSVTTEDTATYYCARDLLGYWGQGTTLTVSS
VL: B14 VL with S7T, V29L, L73F, V84A, L96R, A100G, L106I, K107R
B16: V0042 (antibody, V domains shown)
VH: DVQLQESGPGLVKPSQSLSLTCSVTGYSITTNYYWNWIRQFPGNKLEWMGYITYDGIKTYNPSLNNRISITRDTSKNQFFLKLNSVTTEDTATYYCARGPGLDYWGQGTTLTVSS
VL: B14 VL with S7T, G64A, L73F, V84A, L96Y, A100S, K103N, L106I
B17: V0044 (antibody, V domains shown)
VH: B14 VH with S25T, F34Y, L40Q, S53T, V59N, L86V, S102T
VL: B14 VL with S1N, S7T, V13I, S14A, T20I, A34G, Q38L, Y50F, L73F, V84A
B18: V0036 (antibody, V domains shown)
VH: QVTLKESGPGILQPSQTLNLTCSFSGFSLSTSGMGVSWIRQPSGKGLEWLAHIYWDDDKRYNPSLKSRLTISKDTSRNQVFLKITSVDTADTATYYCVRRSRRGNYDYWGQGTTLTVSS
VL: not shown
B19: V0006 (antibody, V domains shown)
VH: QVQLKESGPGLVAPSQSLSITCTVSGFSLTSYAISWVRQPPGKSLEWLGVIWTGGGSKYNSALKSRLSISKDNSKSQVFLKMNSLQTDDTARYYCVRNYDYYRYEGFDYWGQGTLVTVSA
VL: DIKMTQSPSSLSASLGEGVSLTCRASQDIGSSLHWLQQKPDGTIKRLIYGTSTLDSDVPKRFSGSRSGSDYSLTISSLESEDFVDYFCLQYATSPPTFGGGTKLEIK
B20: V00010 (antibody, V domains shown)
VH: QIQLVQSGPELKKPGETVKISCKASGYSFTTYGMSWVKQAPGKGLKWMGWINTYSGVPTYADDFKERFAFSLETSASTAYLQINNLKNEDTSTYFCARRGGLYDGYYGYWGQGTTLTVSS
VL: DIVMSQSPSSLAVSAGEKVTMSCKSSQSLLSSRTRKNYLAWYQQKPGQSPKLLIYWASTRESGVPDRFTGSGSGTDFTLTITTVQAEDLAVYYCKQSYNLWTFGGGTKLEIK
B21: V0001 (antibody, V domains shown)
VH: EVQLVESGGGLVQPKGSLKLSCAASGFTFNTYAMYWVRQAPGKGLEWVARIRSKSSNYATYYADSVKDRFTISRDDSQSKLYLQMNNLKTEDTAMYYCVREGLWYYFDYWGQGTTLTVSS
VL: DIQMTQITSSLSASLGDRVTISCRASQDISNYLNWYQQKPDGTVKLLIYSTSRLHSGVPSRFSGSGSGTDYSLTISNLEPEDIATYYCQQYSKLLPTFGSGTKLEIK

Tests used:
[1] = target: iPHF (Homo sapiens (Human), UniProt P10636-8); test: Octet, antibody on biosensor tips
Experimental: Anti-human tau antibodies were assessed for affinity for iPHF by Octet (ForteBio, Menlo Park, CA) analysis. Recombinant mouse IgG antibodies were prepared with clone-specific variable domain pairs selected from those presented in Table 3 and mouse IgG1 constant domains. Candidate antibodies were immobilized on biosensor tips (ForteBio) in kinetic buffer (ForteBio). Biosensor tips were then washed before introduction of a solution of iPHF in kinetic buffer for analysis of association and dissociation with candidate antibodies. Affinity measurements (K_D) were obtained using Data Analysis HT version 11.1 and corrected for background and high-frequency noise.

[2] = target: enriched paired helical filament tau protein (ePHF) (human, phosphorylated residues of pathological tau, sites not stated); test: direct ELISA
Experimental: Variable domain nucleic acid sequences from antibodies obtained from immunizations described above were used to prepare recombinant mouse IgG antibodies. These candidate antibodies were analyzed for binding to ePHF and specificity for ePHF over wild type tau by direct ELISA.
For direct ePHF and wildtype tau ELISA, plates were first coated with ePHF or wild type tau. Antigen solutions were prepared in PBS and 50 μL were pipetted into each well. Plates were covered and incubated for one hour at 37° C. or overnight at 4° C. Plates were then washed and blocked by addition of 150 μl of blocking buffer to each well and incubated one hour at room temperature. Plates were then washed before addition of serially diluted candidate antibody samples prepared in blocking buffer. Detection of candidate antibody binding was carried out by washing plates and adding a solution of enzyme-labeled secondary antibody in blocking buffer to each well. Secondary antibody binding was detected by addition of substrate and spectrophotometric analysis of resulting reaction product.

Binder | Kd [1] | EC50 [2]
B1 | 1.3 nM | 
B2 |  | 0.74 nM
B3 |  | 0.234 nM
B4 |  | 0.401 nM
B5 |  | 0.069 nM
B6 |  | 0.237 nM
B7 |  | 0.171 nM
B8 |  | 0.118 nM
B9 |  | 0.053 nM
B10 |  | 1.54 nM
B11 |  | 2.83 nM
B12 |  | 0.48 nM
B13 |  | 0.098 nM
B14 |  | 0.581 nM
B15 |  | 0.618 nM
B16 |  | 0.869 nM
B17 |  | 0.209 nM
B18 |  | 6.43 nM
B19 |  | 0.861 nM
B20 |  | 0.134 nM
B21 |  | 0.126 nM
